A short description of this data set: self-splicing fitness, log relative to wild type (ln ratio); higher = more splicing; Tetrahymena group I intron in knt gene, E. coli kanamycin selection, DiMSum; sequences stand for … in CUCUCU…GGAGGGAAAAGUUAUCAGGCAUGCACCUGGUAGCUAGUCUUUAAACCAAUAGAUUGCAUCGGUUUAAAAGGCAAGACCGUCAAAUUGCGGGAAAGGGGUCAACAGCCGUUCAGUACCAAGUCUCAGGGGAAACUUUGAGAUGGCCUUGCAAAGGGUAUGGUAAUAAGCUGACGGACAUGGUCCUAACCACGCAGCCAAGUCCUAAGUCAACAGAUCUUCUGUUGAUAUGGAUGCAGUUCACAGACUAAAUGUCGGUCGGGGAAGAUGUAUUCUUCUCAUAAGAUAUAGUCGGACCUCUCCUUAAUGGGAGCUAGCGGAUGAAGUGAUGCAACACUGGAGCCGCUGGGAACUAAUUUGUAUGCGAAAGUAUAUUGAUUAGUUUUGGAGUACUCGUGGUCG
The method, boiled down:
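Pooled colonies went to amplicon sequencing on an Illumina HiSeq 2500 after six replicate transformations. The plates were LB agar with 100 μg/mL carbenicillin, 50 μM IPTG and 0.2% rhamnose, with or without 25 μg/mL kanamycin, incubated overnight at 37°C or 30°C. The E. coli BL21(DE3) library had all eight P1ex-region intron nucleotides randomised, the intron placed in the knt kanamycin-resistance gene on pET-22b(+). DiMSum fitness is the error-weighted combination of replicate fold changes, kanamycin against none, normalised to wild type.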

± gives the uncertainty stated by the source.

For GCUCAGCAAUAUUACGGUAA, the “self-splicing fitness (ln)” value is, setting by setting: (30 °C) -1.52 ± 0.13; (37 °C) -0.551 ± 0.11.
Taken in the same sequence, the figures for CGGCAGCAAUAUUACGGGUC were -2.95 ± 0.21 and -1.74 ± 0.22.
The matching figures for AGAAAGCAAUAUUACGCGCU: -0.789 ± 0.15 and -1.26 ± 0.2.
Regarding ACAAAGCAAUAUUACGUUAA, the “self-splicing fitness (ln)” value (30 °C) is -2.91 ± 0.17 and the “self-splicing fitness (ln)” value (37 °C) was -1.32 ± 0.12.
As for GAGUAGCAAUAUUACGGGAC, the “self-splicing fitness (ln)” value was -3.17 ± 0.35 (30 °C) and -1.41 ± 0.22 (37 °C).
Taken in the same sequence, the figures for CACCAGCAAUAUUACGCUUA were -2.24 ± 0.09 and -1.23 ± 0.083.
Consider GGCGAGCAAUAUUACGUCCG, for which the “self-splicing fitness (ln)” value (30 °C) was -3.67 ± 0.35 and the “self-splicing fitness (ln)” value (37 °C) is -2.39 ± 0.32.
Turning to GUGCAGCAAUAUUACGAAUG, the “self-splicing fitness (ln)” value (30 °C) was -2.95 ± 0.16 and the “self-splicing fitness (ln)” value (37 °C) is -2.01 ± 0.19.
As for GGCCAGCAAUAUUACGUCGU, the “self-splicing fitness (ln)” value (30 °C) is -1.18 ± 0.061 and the “self-splicing fitness (ln)” value (37 °C) was -0.452 ± 0.072.
The matching figures for CAGUAGCAAUAUUACGUGAU: -4.22 ± 0.34 and -1.2 ± 0.15.
In the case of UACAAGCAAUAUUACGGCUU, the “self-splicing fitness (ln)” value was -3.99 ± 0.16 (30 °C) and -2.37 ± 0.15 (37 °C).
As for GGUCAGCAAUAUUACGUAAC, the “self-splicing fitness (ln)” value was -1.32 ± 0.14 (30 °C) and -0.628 ± 0.16 (37 °C).
The matching figures for UGUAAGCAAUAUUACGUUAA: -2.04 ± 0.13 and -0.926 ± 0.12.
The matching figures for CGUUAGCAAUAUUACGUGGC: -2.5 ± 0.25 and -2.75 ± 0.25.
The matching figures for ACUGAGCAAUAUUACGCUGG: -3.54 ± 0.2 and -1.4 ± 0.2.
Take CCGCAGCAAUAUUACGGCAA: the “self-splicing fitness (ln)” value (30 °C) was -2.74 ± 0.24 and the “self-splicing fitness (ln)” value (37 °C) was -2.53 ± 0.22.
For UAAUAGCAAUAUUACGACCA, the “self-splicing fitness (ln)” value is, setting by setting: (30 °C) -0.451 ± 0.2; (37 °C) 0.216 ± 0.31.
As to CAUAAGCAAUAUUACGGAGA, the “self-splicing fitness (ln)” value (37 °C) was -3.12 ± 0.38.
Consider AUCUAGCAAUAUUACGAGGG, for which the “self-splicing fitness (ln)” value (30 °C) is -2.92 ± 0.16 and the “self-splicing fitness (ln)” value (37 °C) is -2.18 ± 0.18.
GCCUAGCAAUAUUACGCCGG: the “self-splicing fitness (ln)” value (37 °C) was -3.09 ± 0.37.
Same read-out and setting: for GCGCAGCAAUAUUACGCGCU the value was -1.41 ± 0.28.
Turning to AGCUAGCAAUAUUACGUCGC, the “self-splicing fitness (ln)” value (30 °C) was -3.1 ± 0.18 and the “self-splicing fitness (ln)” value (37 °C) is -2.77 ± 0.36.
With AUAUAGCAAUAUUACGUGAC, the “self-splicing fitness (ln)” value (37 °C) was -2.85 ± 0.32.
Turning to AAGUAGCAAUAUUACGUGUG, the “self-splicing fitness (ln)” value (30 °C) was -2.07 ± 0.099 and the “self-splicing fitness (ln)” value (37 °C) was -1.15 ± 0.094.
On to AUCUAGCAAUAUUACGACCC, for which the “self-splicing fitness (ln)” value is -0.615 ± 0.21 (30 °C) and 0.543 ± 0.31 (37 °C).
Taken in the same sequence, the figures for UCCAAGCAAUAUUACGGCCG were -2.7 ± 0.2 and -1.41 ± 0.16.
CAUAAGCAAUAUUACGGCUA: the “self-splicing fitness (ln)” value runs as follows: (30 °C) -1.56 ± 0.13; (37 °C) -1.51 ± 0.12.
Taken in the same sequence, the figures for AUCUAGCAAUAUUACGUGGG were -2.22 ± 0.18 and -2.42 ± 0.27.
The matching figures for AUAGAGCAAUAUUACGCGUU: -1.47 ± 0.12 and -0.672 ± 0.13.
Consider GGAAAGCAAUAUUACGCGGG, for which the “self-splicing fitness (ln)” value is -2.64 ± 0.18 (30 °C) and -1.5 ± 0.18 (37 °C).
The matching figures for UGUAAGCAAUAUUACGAAUG: -0.511 ± 0.077 and -0.125 ± 0.099.
Taken in the same sequence, the figures for AGCGAGCAAUAUUACGACCG were -1.98 ± 0.23 and -1.84 ± 0.32.
Taken in the same sequence, the figures for UUUCAGCAAUAUUACGCCCA were -1.19 ± 0.22 and -0.699 ± 0.22.
Turning to CAAUAGCAAUAUUACGCAGG, the “self-splicing fitness (ln)” value reads like this: (30 °C) -1.75 ± 0.13; (37 °C) -0.433 ± 0.11.
Take CCUGAGCAAUAUUACGCAUU: the “self-splicing fitness (ln)” value runs as follows: (30 °C) -4.02 ± 0.25; (37 °C) -1.86 ± 0.23.
The matching figures for AAUUAGCAAUAUUACGCCCA: 0.555 ± 0.24 and -0.278 ± 0.36.
Taken in the same sequence, the figures for UACAAGCAAUAUUACGAAGC were -3.39 ± 0.23 and -2.74 ± 0.26.
The matching figures for UGUAAGCAAUAUUACGCGAG: -3.32 ± 0.27 and -1.56 ± 0.17.
Take UCCAAGCAAUAUUACGCUCG: the “self-splicing fitness (ln)” value by setting is: (30 °C) -4.74 ± 0.45; (37 °C) -2.28 ± 0.49.

Source of the values: the supplement of paper PMC7877785.
